Reference: the supplement of paper PMC9732359
± gives the uncertainty stated by the source.

Assay: protein stability index of a GFP-peptide fusion (yeast GPS) (PSI 1-4); higher = more stable; sorted into four equal gates, so the index is relative within each strain
Summary of the method: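 Tiled yeast protein peptides of 17 residues were each joined downstream of GFP, on plasmids that also express Cherry. The pooled library was maintained in yeast, and mid-log cultures in leucine-free medium were sorted into four equal gates on the GFP/Cherry ratio. Plasmids from every gate were amplified by PCR and sequenced on Illumina, with barcodes linking reads to strains. The protein stability index of a peptide is its gate-number-weighted read frequency summed over the gates.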

Sequence | protein stability index (doa10∆) | protein stability index (pdr5∆) | protein stability index (san1∆) | protein stability index (ubr1∆)
HPYEYEIDHQEYSPEIL [RRP6] | 2.75 ± 0.048 | 2.69 ± 0.042 | 2.83 ± 0.059 | 2.76 ± 0.035
KCFDDIEPHIFDQLIEW [YCG1] | 3.2 ± 0.075 | 3.1 ± 0.081 | 3.31 ± 0.046 | 3.3 ± 0.046
IRNVIMSASNANDFQLT [SRB8] | 2.06 ± 0.048 | 2.34 ± 0.058 | 2.24 ± 0.087 | 2.19 ± 0.073
SLQSCSVAVHFQYVIDE [SMC4] | 1.82 ± 0.082 | 1.3 ± 0.039 | 1.47 ± 0.084 | 1.54 ± 0.048
QNNNTLGGGGLFGQSQQ [YGR119C/NUP57] | 3.43 ± 0.13 | 3.27 ± 0.29 | 3.18 ± 0.12 | 3.07 ± 0.087
QVASIIESFVELGVSIY [NUT2] | 2.77 ± 0.13 | 2.98 ± 0.17 | 2.2 ± 0.13 | 1.76 ± 0.045
NKASLAQYEVLANYLTS [QCR2] | 2.42 ± 0.063 | 2.41 ± 0.051 | 2.5 ± 0.075 | 2.64 ± 0.081
RNNLPAKTFGASVRIFL [RPL33A] | 2.81 ± 0.052 | 2.76 ± 0.054 | 2.84 ± 0.053 | 2.68 ± 0.052
QLDFTEFDEQYGTRPLV [SNF2] | 3.26 ± 0.048 | 3.02 ± 0.047 | 3.21 ± 0.039 | 2.81 ± 0.032
RVNEMVQGMNDDIFIRY [ECM29] | 1.7 ± 0.095 | 1.89 ± 0.17 | 2.09 ± 0.19 | 2.39 ± 0.11
TFHDYDMVKLDINPPLV [RRP42] | 2.94 ± 0.088 | 2.73 ± 0.061 | 2.87 ± 0.096 | 3.15 ± 0.037
APKGSTDPKELYNNAHV [RPC40] | 2.92 ± 0.14 | 2.96 ± 0.082 | 2.68 ± 0.11 | 3.21 ± 0.062
KKKTKKELELERKERED [SWI1] | 3.62 ± 0.12 | 3.37 ± 0.073 | 3.51 ± 0.051 | 3.31 ± 0.043
KTLKRMIKESSTANPNI [POP1] | 2.54 ± 0.1 | 2.76 ± 0.091 | 2.28 ± 0.092 | 2.67 ± 0.054
APMRLATAALEIILKLC [YJL039C/NUP192] | 1.6 ± 0.064 | 2.06 ± 0.043 | 1.31 ± 0.087 | 2.4 ± 0.057
HEFKLIVGKKIQEFLVV [GRR1] | 2.73 ± 0.046 | 2.09 ± 0.062 | 2.38 ± 0.076 | 2.4 ± 0.059
VNECIAQSHQRFNAKVS [CDC53] | 2.15 ± 0.039 | 2.6 ± 0.043 | 2.64 ± 0.054 | 2.3 ± 0.027
KTRVGSVTAQVYKIALR [RPC82] | 1.27 ± 0.11 | 1.49 ± 0.068 | 1.5 ± 0.16 | 1.15 ± 0.12
IKENFFERIMILDPQVT [YJL039C/NUP192] | 1.3 ± 0.062 | 1.33 ± 0.054 | 1.29 ± 0.12 | 1.14 ± 0.05
KFKRHHSDRYHRVAENW [RPL32] | 3 ± 0.072 | 3.21 ± 0.065 | 3.2 ± 0.05 | 3.07 ± 0.045
VCQVTKFGLLLQVSAQE [ECM29] | 2.15 ± 0.061 | 2.15 ± 0.044 | 2.62 ± 0.067 | 1.9 ± 0.04
YSYTTIVLSDQTQEFFL [YJL039C/NUP192] | 2.79 ± 0.077 | 2.92 ± 0.068 | 2.93 ± 0.081 | 2.82 ± 0.062
DVYNRELDEHTTQIDLF [BRR2] | 3.07 ± 0.07 | 2.73 ± 0.056 | 2.9 ± 0.046 | 2.41 ± 0.04
LQRDLIQTKEQVSINSN [YIL149C/MLP2] | 2.78 ± 0.072 | 3.12 ± 0.089 | 3.11 ± 0.065 | 3.27 ± 0.059
TFQRVCQYMVACVPLLP [RPN1] | 2.5 ± 0.06 | 2.42 ± 0.071 | 1.86 ± 0.14 | 2.53 ± 0.1
PFGVSTIFGGVDKNGAH [PRE10] | 3.06 ± 0.076 | 2.98 ± 0.069 | 2.73 ± 0.12 | 2.97 ± 0.049

Sequence | protein stability index (doa10∆) | protein stability index (pdr5∆) | protein stability index (san1∆) | protein stability index (ubr1∆)
RARKDRMRVSVLEKYEV [SSN3] | 2.02 ± 0.11 | 2.65 ± 0.089 | 2.19 ± 0.13 | 1.97 ± 0.039
SSVKCFGPIKVELPTKE [FAS1] | 2.5 ± 0.069 | 1.98 ± 0.05 | 2.56 ± 0.057 | 1.97 ± 0.057
AGRGFTLAEVKAAGLTA [RPL13A] | 2.27 ± 0.073 | 2.5 ± 0.071 | 1.56 ± 0.093 | 1.77 ± 0.044
PTKTLTTKERKKSRLGN [PRP8] | 2.33 ± 0.079 | 2.26 ± 0.072 | 2.91 ± 0.094 | 2.62 ± 0.056
VLDHQRAIPFRRFNSSI [RPL17A] | 2.69 ± 0.095 | 2.39 ± 0.14 | 1.67 ± 0.15 | 1.4 ± 0.13
KPPISDSVFSFGPKKEN [YLR335W/NUP2] | 2.82 ± 0.065 | 2.81 ± 0.057 | 2.75 ± 0.046 | 2.94 ± 0.039
LDELQWKSPEWIQVFGL [MED6] | 2.24 ± 0.078 | 2.41 ± 0.053 | 2.62 ± 0.071 | 2.56 ± 0.066
SVVHPGEMVGVLAAQSI [RPO21] | 1.29 ± 0.13 | 1.81 ± 0.089 |  | 1.26 ± 0.06
MANLSQIYTQRAYMRPL [SCL1] | 1.66 ± 0.06 | 1.46 ± 0.074 | 1.47 ± 0.12 | 1.54 ± 0.043
LRKIDMLQKKLVEVEDE [SRB7] | 3.06 ± 0.13 | 3.45 ± 0.11 | 3.42 ± 0.18 | 3.36 ± 0.1
IGQFLEPIDQNTGIVSS [RPT3] | 2.48 ± 0.2 | 2.82 ± 0.11 | 2.14 ± 0.17 | 2.85 ± 0.066
LNELYQTQQDLPKVRYN [NSL1] | 3.1 ± 0.042 | 3.12 ± 0.052 | 2.96 ± 0.039 | 3.03 ± 0.038
TLRPRQYATVSKTHKTV [RPL34A] | 2 ± 0.16 | 2.12 ± 0.093 |  | 
PSKGQSLSKISQAFDIV [RPP1] | 3.25 ± 0.095 | 3.19 ± 0.085 | 2.96 ± 0.11 | 3.2 ± 0.085
IQTKEQVSINSNKILVY [YIL149C/MLP2] | 2.21 ± 0.076 | 2.75 ± 0.17 | 1.85 ± 0.21 | 2.96 ± 0.15
KIQFILEQMELSILKGD [RPN5] |  | 2.57 ± 0.23 | 2.35 ± 0.29 | 2.65 ± 0.19
PQLSKAGKFPTPVSHND [RPL1A] | 2.31 ± 0.04 | 2.87 ± 0.048 | 2.36 ± 0.048 | 2.62 ± 0.031
QFTSSLFKALKVILNER [RGR1] | 2.03 ± 0.11 | 2.4 ± 0.069 | 1.83 ± 0.1 | 2.42 ± 0.077
AYSMGAQNQGGQVSMSQ [PGD1] | 3.15 ± 0.095 | 3.2 ± 0.084 | 3.02 ± 0.094 | 3.22 ± 0.076
SNSNVTNPSSIFGGAGG [YOR098C/NUP1] | 2.89 ± 0.049 | 2.77 ± 0.05 | 2.29 ± 0.052 | 2.87 ± 0.045
QFEVSDDEKNDKQARKQ [SNF2] | 3.38 ± 0.083 | 3.4 ± 0.12 | 3.06 ± 0.069 | 3.29 ± 0.077
ELTKTKSSLYSAQDLLD [YIL149C/MLP2] | 2.67 ± 0.05 | 2.84 ± 0.05 | 2.6 ± 0.07 | 2.83 ± 0.029
KKHGKTDYFLPKNYSLH [YJL039C/NUP192] | 2.76 ± 0.057 | 2.63 ± 0.069 | 2.71 ± 0.049 | 2.35 ± 0.049
SNMLGSNEDVMMTGAEQ [RPB3] | 3.47 ± 0.22 | 3.35 ± 0.12 | 3.26 ± 0.1 | 3.08 ± 0.089
AFALAKEKAPTIIFIDE [RPT5] | 2.79 ± 0.12 | 2.78 ± 0.12 | 2.83 ± 0.14 | 2.88 ± 0.086
KMVAKGLNDLVEQYKFR [BRR2] | 3.35 ± 0.12 | 3.17 ± 0.12 | 3.03 ± 0.11 | 3.14 ± 0.096
